Here are results for eight molecules from PMC10238739, “Interaction with single-stranded DNA-binding protein modulates Escherichia coli RadD DNA repair activities” (The Journal of Biological Chemistry, 2023).

Sequences and labels used below:
B1: Escherichia coli RadD, wild type (enzyme, E. coli)
chain: MIFTLRPYQQEAVDATLNHFRRHKTPAVIVLPTGAGKSLVIAELARLARGRVLVLAHVKELVAQNHAKYQALGLEADIFAAGLKRKESHGKVVFGSVQSVARNLDAFQGEFSLLIVDECHRIGDDEESQYQQILTHLTKVNPHLRLLGLTATPFRLGKGWIYQFHYHGMVRGDEKALFRDCIYELPLRYMIKHGYLTPPERLDMPVVQYDFSRLQAQSNGLFSEADLNRELKKQQRITPHIISQIMEFAATRKGVMIFAATVEHAKEIVGLLPAEDAALITGDTPGAERDVLIENFKAQRFRYLVNVAVLTTGFDAPHVDLIAILRPTESVSLYQQIVGRGLRLAPGKTDCLILDYAGNPHDLYAPEVGTPKGKSDNVPVQVFCPACGFANTFWGKTTADGTLIEHFGRRCQGWFEDDDGHREQCDFRFRFKNCPQCNAENDIAARRCRECDTVLVDPDDMLKAALRLKDALVLRCSGMSLQHGHDEKGEWLKITYYDEDGADVSERFRLQTPAQRTAFEQLFIRPHTRTPGIPLRWITAADILAQQALLRHPDFVVARMKGQYWQVREKVFDYEGRFRLAHELRG
B2: RadD (Escherichia coli K-12; R21E) (protein)
chain: MIFTLRPYQQEAVDATLNHFERHKTPAVIVLPTGAGKSLVIAELARLARGRVLVLAHVKELVAQNHAKYQALGLEADIFAAGLKRKESHGKVVFGSVQSVARNLDAFQGEFSLLIVDECHRIGDDEESQYQQILTHLTKVNPHLRLLGLTATPFRLGKGWIYQFHYHGMVRGDEKALFRDCIYELPLRYMIKHGYLTPPERLDMPVVQYDFSRLQAQSNGLFSEADLNRELKKQQRITPHIISQIMEFAATRKGVMIFAATVEHAKEIVGLLPAEDAALITGDTPGAERDVLIENFKAQRFRYLVNVAVLTTGFDAPHVDLIAILRPTESVSLYQQIVGRGLRLAPGKTDCLILDYAGNPHDLYAPEVGTPKGKSDNVPVQVFCPACGFANTFWGKTTADGTLIEHFGRRCQGWFEDDDGHREQCDFRFRFKNCPQCNAENDIAARRCRECDTVLVDPDDMLKAALRLKDALVLRCSGMSLQHGHDEKGEWLKITYYDEDGADVSERFRLQTPAQRTAFEQLFIRPHTRTPGIPLRWITAADILAQQALLRHPDFVVARMKGQYWQVREKVFDYEGRFRLAHELRG
notes: full-length, untagged; expressed from plasmid pEAW724 in E. coli STL2669/pT7pol26; conventional chromatography
B3: RadD (Escherichia coli K-12; R145E) (protein)
chain: MIFTLRPYQQEAVDATLNHFRRHKTPAVIVLPTGAGKSLVIAELARLARGRVLVLAHVKELVAQNHAKYQALGLEADIFAAGLKRKESHGKVVFGSVQSVARNLDAFQGEFSLLIVDECHRIGDDEESQYQQILTHLTKVNPHLELLGLTATPFRLGKGWIYQFHYHGMVRGDEKALFRDCIYELPLRYMIKHGYLTPPERLDMPVVQYDFSRLQAQSNGLFSEADLNRELKKQQRITPHIISQIMEFAATRKGVMIFAATVEHAKEIVGLLPAEDAALITGDTPGAERDVLIENFKAQRFRYLVNVAVLTTGFDAPHVDLIAILRPTESVSLYQQIVGRGLRLAPGKTDCLILDYAGNPHDLYAPEVGTPKGKSDNVPVQVFCPACGFANTFWGKTTADGTLIEHFGRRCQGWFEDDDGHREQCDFRFRFKNCPQCNAENDIAARRCRECDTVLVDPDDMLKAALRLKDALVLRCSGMSLQHGHDEKGEWLKITYYDEDGADVSERFRLQTPAQRTAFEQLFIRPHTRTPGIPLRWITAADILAQQALLRHPDFVVARMKGQYWQVREKVFDYEGRFRLAHELRG
notes: as for B2
B4: RadD (Escherichia coli K-12; R49E) (protein)
chain: MIFTLRPYQQEAVDATLNHFRRHKTPAVIVLPTGAGKSLVIAELARLAEGRVLVLAHVKELVAQNHAKYQALGLEADIFAAGLKRKESHGKVVFGSVQSVARNLDAFQGEFSLLIVDECHRIGDDEESQYQQILTHLTKVNPHLRLLGLTATPFRLGKGWIYQFHYHGMVRGDEKALFRDCIYELPLRYMIKHGYLTPPERLDMPVVQYDFSRLQAQSNGLFSEADLNRELKKQQRITPHIISQIMEFAATRKGVMIFAATVEHAKEIVGLLPAEDAALITGDTPGAERDVLIENFKAQRFRYLVNVAVLTTGFDAPHVDLIAILRPTESVSLYQQIVGRGLRLAPGKTDCLILDYAGNPHDLYAPEVGTPKGKSDNVPVQVFCPACGFANTFWGKTTADGTLIEHFGRRCQGWFEDDDGHREQCDFRFRFKNCPQCNAENDIAARRCRECDTVLVDPDDMLKAALRLKDALVLRCSGMSLQHGHDEKGEWLKITYYDEDGADVSERFRLQTPAQRTAFEQLFIRPHTRTPGIPLRWITAADILAQQALLRHPDFVVARMKGQYWQVREKVFDYEGRFRLAHELRG
notes: as for B2
B5: RadD (Escherichia coli K-12) (protein)
chain: MIFTLRPYQQEAVDATLNHFRRHKTPAVIVLPTGAGKSLVIAELARLARGRVLVLAHVKELVAQNHAKYQALGLEADIFAAGLKRKESHGKVVFGSVQSVARNLDAFQGEFSLLIVDECHRIGDDEESQYQQILTHLTKVNPHLRLLGLTATPFRLGKGWIYQFHYHGMVRGDEKALFRDCIYELPLRYMIKHGYLTPPERLDMPVVQYDFSRLQAQSNGLFSEADLNRELKKQQRITPHIISQIMEFAATRKGVMIFAATVEHAKEIVGLLPAEDAALITGDTPGAERDVLIENFKAQRFRYLVNVAVLTTGFDAPHVDLIAILRPTESVSLYQQIVGRGLRLAPGKTDCLILDYAGNPHDLYAPEVGTPKGKSDNVPVQVFCPACGFANTFWGKTTADGTLIEHFGRRCQGWFEDDDGHREQCDFRFRFKNCPQCNAENDIAARRCRECDTVLVDPDDMLKAALRLKDALVLRCSGMSLQHGHDEKGEWLKITYYDEDGADVSERFRLQTPAQRTAFEQLFIRPHTRTPGIPLRWITAADILAQQALLRHPDFVVARMKGQYWQVREKVFDYEGRFRLAHELRG
notes: as for B2
B6: RadD R49E (enzyme)
chain: MIFTLRPYQQEAVDATLNHFRRHKTPAVIVLPTGAGKSLVIAELARLAEGRVLVLAHVKELVAQNHAKYQALGLEADIFAAGLKRKESHGKVVFGSVQSVARNLDAFQGEFSLLIVDECHRIGDDEESQYQQILTHLTKVNPHLRLLGLTATPFRLGKGWIYQFHYHGMVRGDEKALFRDCIYELPLRYMIKHGYLTPPERLDMPVVQYDFSRLQAQSNGLFSEADLNRELKKQQRITPHIISQIMEFAATRKGVMIFAATVEHAKEIVGLLPAEDAALITGDTPGAERDVLIENFKAQRFRYLVNVAVLTTGFDAPHVDLIAILRPTESVSLYQQIVGRGLRLAPGKTDCLILDYAGNPHDLYAPEVGTPKGKSDNVPVQVFCPACGFANTFWGKTTADGTLIEHFGRRCQGWFEDDDGHREQCDFRFRFKNCPQCNAENDIAARRCRECDTVLVDPDDMLKAALRLKDALVLRCSGMSLQHGHDEKGEWLKITYYDEDGADVSERFRLQTPAQRTAFEQLFIRPHTRTPGIPLRWITAADILAQQALLRHPDFVVARMKGQYWQVREKVFDYEGRFRLAHELRG
B7: RadD R145E (enzyme)
chain: MIFTLRPYQQEAVDATLNHFRRHKTPAVIVLPTGAGKSLVIAELARLARGRVLVLAHVKELVAQNHAKYQALGLEADIFAAGLKRKESHGKVVFGSVQSVARNLDAFQGEFSLLIVDECHRIGDDEESQYQQILTHLTKVNPHLELLGLTATPFRLGKGWIYQFHYHGMVRGDEKALFRDCIYELPLRYMIKHGYLTPPERLDMPVVQYDFSRLQAQSNGLFSEADLNRELKKQQRITPHIISQIMEFAATRKGVMIFAATVEHAKEIVGLLPAEDAALITGDTPGAERDVLIENFKAQRFRYLVNVAVLTTGFDAPHVDLIAILRPTESVSLYQQIVGRGLRLAPGKTDCLILDYAGNPHDLYAPEVGTPKGKSDNVPVQVFCPACGFANTFWGKTTADGTLIEHFGRRCQGWFEDDDGHREQCDFRFRFKNCPQCNAENDIAARRCRECDTVLVDPDDMLKAALRLKDALVLRCSGMSLQHGHDEKGEWLKITYYDEDGADVSERFRLQTPAQRTAFEQLFIRPHTRTPGIPLRWITAADILAQQALLRHPDFVVARMKGQYWQVREKVFDYEGRFRLAHELRG
B8: RadD R21E (enzyme)
chain: MIFTLRPYQQEAVDATLNHFERHKTPAVIVLPTGAGKSLVIAELARLARGRVLVLAHVKELVAQNHAKYQALGLEADIFAAGLKRKESHGKVVFGSVQSVARNLDAFQGEFSLLIVDECHRIGDDEESQYQQILTHLTKVNPHLRLLGLTATPFRLGKGWIYQFHYHGMVRGDEKALFRDCIYELPLRYMIKHGYLTPPERLDMPVVQYDFSRLQAQSNGLFSEADLNRELKKQQRITPHIISQIMEFAATRKGVMIFAATVEHAKEIVGLLPAEDAALITGDTPGAERDVLIENFKAQRFRYLVNVAVLTTGFDAPHVDLIAILRPTESVSLYQQIVGRGLRLAPGKTDCLILDYAGNPHDLYAPEVGTPKGKSDNVPVQVFCPACGFANTFWGKTTADGTLIEHFGRRCQGWFEDDDGHREQCDFRFRFKNCPQCNAENDIAARRCRECDTVLVDPDDMLKAALRLKDALVLRCSGMSLQHGHDEKGEWLKITYYDEDGADVSERFRLQTPAQRTAFEQLFIRPHTRTPGIPLRWITAADILAQQALLRHPDFVVARMKGQYWQVREKVFDYEGRFRLAHELRG

One data set deals with Escherichia coli single-stranded DNA-binding protein (SSB), full-length (E. coli, UniProt P0AGE0 1-178). Description: cell-based or functional assay.
Chain of Escherichia coli single-stranded DNA-binding protein (SSB), full-length (P0AGE0 whole entry): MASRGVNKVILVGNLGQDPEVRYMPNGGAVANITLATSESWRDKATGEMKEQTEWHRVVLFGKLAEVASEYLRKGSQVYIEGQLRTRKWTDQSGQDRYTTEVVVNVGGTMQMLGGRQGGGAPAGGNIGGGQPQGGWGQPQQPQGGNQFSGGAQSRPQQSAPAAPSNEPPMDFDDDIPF
Conditions: not given
For B1, the “ATPase rate of 200 nM RadD on titration of SSB from 0 to 40 μM” value is around 3 fold.

Substrate in another data set: Nc1ncnc2c1ncn2[C@@H]1O[C@H](COP(=O)(O)OP(=O)(O)OP(=O)(O)O)[C@@H](O)[C@H]1O
In words: coupled spectrophotometric ATPase assay (NADH oxidation). The following applies: no SSB, no DNA, 200 nM RadD, 10 mM Mg acetate, 200 mM K glutamate, pH 7.5, 37 °C. Type of data set: biochemical, Escherichia coli. The text has this: coupled spectrophotometric ATPase assay (NADH oxidation) on RadD
B2: the Michaelis constant (Km) worked out at 654 ± 52 µM and the Vmax was 42.3 µM/min.
The like results for B3 were, in that order, 698 ± 75 µM and 28.4 µM/min.
Turning to B4, the Km was 464 ± 44 µM and the Vmax stood at 51 µM/min.
On to B5, for which the Michaelis constant (Km) turned out to be 640 ± 76 µM and the Vmax worked out at 29.4 µM/min.

The target of a further data set is FAM labeled SSB C-terminal peptide … (E. coli). In words: fluorescence polarisation; fluorescence anisotropy; 10 nM 5-FAM SSB C-terminal peptide, RadD or variant titrated up to 30 μM; 25 mM Tris-acetate pH 7.5, 200 mM potassium glutamate, 10 mM magnesium acetate, 1 mM DTT, 0.1 μg/ml BSA; 15 min at room temperature; apparent KD, one-site fit.
Conditions: not given
Background: Fluorescence polarisation rises when a labelled molecule tumbles more slowly, as on binding a larger partner.
As to B1, the Kd was 5.4 µM.
Still for that read-out and setting: in the case of B6 it was above 30 µM.
Regarding B7, the Kd is above 30 µM.
Still for that read-out and setting: the value for B8 was above 30 µM.

Usually Km stands for the substrate concentration at which the rate is half of its maximum. By Vmax is commonly meant the rate approached at saturating substrate.
